Square brackets hold non-standard residues; d marks the D form. Phe(4-guanidino) = N=C(N)Nc1ccc(C[C@H](N)C(=O)O)cc1
Biological target: Lactate dehydrogenase A [LDHA] (human, UniProt P00338 2-332)
Assay: cell-based or functional assay

IC50 of LDH activity (Abcam LDH activity kit, lysates of NCI-H460 cells treated for 24 or 96 h) [µM] | Binder
22 | cyclo(PRGPRPVWW[Phe(4-guanidino)][Phe(4-guanidino)]WW[Phe(4-guanidino)][Phe(4-guanidino)]WW) [HILR-030 (cyclo-[Pro-Arg-Gly-Pro-Arg-Pro-Val-Trp-Trp-Gpa-Gpa-Trp-Trp-Gpa-Gpa-Trp-Trp])]
16 | PRGPRPVWWRRWWRRWW (cyclic peptide (cyclo-[...])) [HILR-025 (cyclo-[Pro-Arg-Gly-Pro-Arg-Pro-Val-Trp-Trp-Arg-Arg-Trp-Trp-Arg-Arg-Trp-Trp])]

Source: US20190046600A1 (published 2019)
